Literature values as cited in US20060198900A1, “Bioactive Agent Compositions for Repair of Cell Injuries” (Nutritional Bioscience Limited, priority 2004, published 2006).

Tested on: gastric damage
Conditions: Playford et al. 1995

B1: hSP: recombinant human spasmolytic polyptide (hSP) (protein, UniProt Q03403 24-129, looked up)
Trefoil factor 2: EKPSPCQCSRLSPHNRTNCGFPGITSDQCFDNGCCFDSSVTGVPWCFHPLPKQESDQCVMEVSDRRNCGYPGISPEECASRKCCFSNFIFEVPWCFFPKSVEDCHY
  reduction of gastric damage: 50%
